Reference: article doi:10.1101/2025.04.09.647959
Where two headings read alike, the source gives them in different places.

B1: hCD40L-1 (LNA-T, 2'F-C) (XNA)
DNA: GGGAGGAGGAAGCGGAAAAAGCAGGTGTGAAAAGGACGTCAAACGACGTGACACACAGACGACACGCCCGA
modifications: all T are LNA-T; all C are 2'F-C; A and G ribo
B2: hCD40L-4 (LNA-T, 2'F-C) (XNA)
DNA: GGGAGGAGGAAGCGGACGATGAACAAGTTGAAAAGGAATTTAAACGAATTAACAACAGACGACACGCCCGA
modifications: all T are LNA-T; all C are 2'F-C; A and G ribo

Key:
[1] = biological target: T1, human CD40 ligand (hCD40L) (Homo sapiens, UniProt P29965 113-261); experiment: BLI
T1 sequence (P29965 113-261): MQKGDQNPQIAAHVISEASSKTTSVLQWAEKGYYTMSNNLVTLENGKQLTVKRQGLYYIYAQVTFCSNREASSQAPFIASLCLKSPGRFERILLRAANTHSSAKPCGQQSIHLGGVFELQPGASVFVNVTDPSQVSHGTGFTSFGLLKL

[2] = biological target: T1, human CD40 ligand (hCD40L); experiment: BLI; remark: listed apart in the source

Binder	binding result [1]	binding result [2]
B1	binds	–
B2	–	binds
